Results published in article PMC11496930 (2024).
Read-outs that look alike come from different tables or passages of the source.

B1: 2C1 recombinant IgG (human constant regions) (antibody, V domains shown)
VH: QVQLQQSGAELVRPGASVTLSCKASGYIFTDYEIHWLKQTPVHGLEWIGTSDPETGGFAYTQKFKGKAILTADKSSSTAYMELRSLTSEDSAVYYCTRRPYYGSGAWFAYWGQGTLVTVSA
VL: DIVMTQSHKFMSTSVGDRVSITCKANHDVNIAVAWYQQKPGQSPKLLIYSASYRYTGVPDRFTGSGSGTDFTFTISSVQAEDLAVYYCQQHYDTPRTFGGGTKLEIK
B2: 1D3 recombinant IgG (human constant regions) (antibody, V domains shown)
VH: QVQIQQSGAELMRPGASVKLSCKATGYTFTGYWIEWVKQRPGHGLEWIGEILSGRGTTNYNEKFKGKATFTADTYSNTAYMQLSSLTTGDSAIYYCARGGFLYGDGPFDYWGQGTTLTVSS
VL: DILLTQSPAILSVSPGERVSFSCRASQNIDTHIHWYQQRTNGSPRLLIKYASESISGIPSRFSGSGSGTDFTLTINSVESEDIADYYCQQSNSWPFTFGSGTKLEIK

What was measured:
ADI-19425 Fab [1] = target: T1, ADI-19425 Fab (human, UniProt P0DOY2 1-106); experiment: BLI
ADI-19425 Fab [2] = target: T1, ADI-19425 Fab; experiment: BLI; remark: listed apart in the source

Binder | koff (ADI-19425 Fab [1]) [s⁻¹] | koff (ADI-19425 Fab [2]) [s⁻¹]
B1 | 0.000442 | –
B2 | – | 0.000115
